Data set [1] is described as follows: Residence time in blood of HA-GLP-1 mutant conjugate (Test Example 5). The data set is classed as in vivo, rat. As to the method: The HA-GLP-1 mutant conjugate solution obtained in Example 15-2 was diluted with PBS that contained 0.05% Tween 80 (pH 7.4; hereinafter also referred to as “solvent Z”), and the thus diluted solution was then administered at a dosage of 50 μg/kg into the vein of a rat as a single dose. Thereafter, 1, 4, 8, 24, 48, 72, 96, and 168 hours after the administration, the blood was collected (heparin treatment). The blood was then centrifuged, so as to obtain plasma. This plasma sample was cryopreserved at −20° C. or less until measurement was carried out.
Thereafter, they were analyzed using a microplate reader. Conditions for measurement are described below:
Microplate reader: SPECTRA MAX GEMINI (manufactured by Molecular Devices)
Detection: Fluorescence (EX: 355 nm, EM: 460 nm)
The HA-GLP-1 mutant conjugate solution obtained in Example 15-2 was diluted with solvent Z and Assay Buffer included with kit W, so as to prepare standard solutions having concentrations of 12.8, 6.4, 3.2, 1.6, 0.8, 0.4, 0.2, 0.1 μg/ml and 0 μg/ml. Thereafter, 5 μl of normal rat plasma was added to this standard solution, so as to prepare a sample used for calibration curve.
Assay Buffer included with kit W was added to the HA-GLP-1 mutant conjugate-administered rat plasma sample, so as to prepare a measurement sample.
The concentration of the HA-GLP-1 mutant conjugate in plasma was calculated based on the calibration curve obtained from the fluorescence intensity of each standard sample using analysis software SOFTmax PRO (manufactured by Molecular Devices).
With regard to data of a change in the concentration in blood of the administered HA-GLP-1 mutant conjugate, pharmacokinetic parameters were calculated using WinNonlin Ver 4.0.1 (manufactured by Pharsight). With regard to a change in the concentration in plasma of each individual, model-independent analysis was carried out, so as to calculate the mean residence time in blood (MRT). The half-life (t1/2) was calculated using the data of the final 3 measurable points of each individual.

Data set [2] has as its system BKS.Cg-+Lepr^db/+Lepr^db/Jcl mouse. Nature of the data set: Oral sugar tolerance test. The format is in vivo. The following applies: for Hypoglycemic ratio: mean value. On the procedure:
8-week-old male BKS.Cg-+Lepr^db/+Lepr^db/Jcl mouse (manufactured by CLEA Japan, Inc.) was subjected to fasting overnight. Thereafter, the HA-GLP-1 mutant conjugate solution obtained in Example 15-2 that had been diluted with solvent Z (peptide amount: 1.5 μg/kg, 15 μg/kg, or 150 μg/kg) or solvent Z was intravenously administered to the above […]. 1 minute after the intravenous administration, a 50% glucose solution (Otsuka Pharmaceutical Co., Ltd.) was orally administered at a dosage of 3 g/kg. […]
The blood was collected from the tail portion before administration of glucose (value at hour 0), and 0.5, 1, 2, and 4 hours after the administration of glucose. Thereafter, the blood glucose level was measured by the enzyme method (hexokinase method, Autosera S GLU (Daiichi Pure Chemical Co., Ltd.; equipment name: BioMajesty JCA-BM1250 (JEOL Ltd.)).
The blood glucose level was calculated by the following hypoglycemic ratio: […]
The mean value and standard deviation of each group were calculated from the calculated hypoglycemic ratio.

Where [3] appears, read: intravenously administered to a rat.
[4] abbreviates: rat vein, 50 μg/kg single dose, mean value.

Where no end group is shown, it is not given here.

What is called MRT is a mean duration of stay, worked out from the concentration-time curve. As a reminder, the half-life is how long it takes for the measured level to halve. A lower half-life goes with rapid decline. On to “HA-GLP-1 mutant conjugate: GLP-1 mutant (Gly at position 8, Cys at position 37) bound to HA-AM-MI/SUC; 3.7 GLP-1 mutant/HA (mol/mol) (HGEGTFTSDVSSYLEGQAAKEFIAWLVKGRC; also: bound to modified hyaluronic acid HA-AM-MI/SUC, 3.7 peptide per HA, attachment site not given here; UniProt P01275 98-128, looked up, variant A8G G37C)”, for which, in data set [1] (setting [3]), the MRT stood at 30.2 h and the half-life stood at 23.6 h. For the same substance, in data set [1] (setting [4]), the Distribution volume is 53.4 mL/kg, the “Mean residence time in blood” value was found to be 30.2 h, the Total clearance came to 1.8 mL/h/kg and the half-life was found to be 23.6 h. In addition, in data set [2] (oral sugar tolerance test), the “hypoglycemic action compared with GLP-1 (Human, 7-37)” value is “significantly increased”. Also, the Hypoglycemic ratio in data set [2] (peptide amount 1.5 μg/kg intravenous 1 minute before oral glucose 3 g/kg) came out at 3.0%. In addition, the Hypoglycemic ratio in data set [2] (peptide amount 15 μg/kg intravenous 1 minute before oral glucose 3 g/kg) is listed as 60.1%. Further, the Hypoglycemic ratio in data set [2] (peptide amount 150 μg/kg intravenous 1 minute before oral glucose 3 g/kg) is 120.3%.

For the origin of these results see patent US9394379B2, “Process for producing water-soluble hyaluronic acid modification” (Chugai Seiyaku Kabushiki Kaisha, priority 2004, dated 2016).
